Results taken from the supplement of paper PMC9233669.
Variants at the floor of the assay were thinned out.

Experiments:
biotinyl-Ile-oxazolone = test: self-aminoacylation, catalytic enhancement (BIO) (fold over background); higher = more active; k-Seq, kA / k0A0; sequences stand for … in GGGAAUGGAUCCACAUCUACGAAUUC…UUCACUGCAGACUUGACGAAGCUG
Method in brief: (§1)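 Working in 50 μL HEPES/NaCl/KCl/MgCl2/CaCl2 buffer with 5% acetonitrile at pH 6.9–7.0, mutagenized RNA pools (0.43 μM; 21-nt variable region) were reacted with 2–1250 μM of each biotinyl-aminoacyl-oxazolone for 90 minutes at room temperature. Streptavidin capture followed, with quantification by triplicate qPCR and Illumina sequencing. Catalytic enhancement is reported as median kA over the uncatalyzed rate, the low-activity peak of a bimodal Gaussian fit to the data.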

biotinyl-Met-oxazolone = test: self-aminoacylation, catalytic enhancement (BMO) (fold over background); higher = more active; k-Seq, kA / k0A0; sequences stand for … in GGGAAUGGAUCCACAUCUACGAAUUC…UUCACUGCAGACUUGACGAAGCUG
Method in brief: as §1

biotinyl-Phe-oxazolone = test: self-aminoacylation, catalytic enhancement (BFO) (fold over background); higher = more active; k-Seq, kA / k0A0; sequences stand for … in GGGAAUGGAUCCACAUCUACGAAUUC…UUCACUGCAGACUUGACGAAGCUG
Method in brief: as §1

biotinyl-Val-oxazolone = test: self-aminoacylation, catalytic enhancement (BVO) (fold over background); higher = more active; k-Seq, kA / k0A0; sequences stand for … in GGGAAUGGAUCCACAUCUACGAAUUC…UUCACUGCAGACUUGACGAAGCUG
Method in brief: as §1

biotinyl-Trp-oxazolone = test: self-aminoacylation, catalytic enhancement (BWO) (fold over background); higher = more active; k-Seq, kA / k0A0; sequences stand for … in GGGAAUGGAUCCACAUCUACGAAUUC…UUCACUGCAGACUUGACGAAGCUG
Method in brief: as §1

biotinyl-Leu-oxazolone = test: self-aminoacylation, catalytic enhancement (BLO) (fold over background); higher = more active; k-Seq, kA / k0A0; sequences stand for … in GGGAAUGGAUCCACAUCUACGAAUUC…UUCACUGCAGACUUGACGAAGCUG
Method in brief: as §1

Sequence	self-aminoacylation (biotinyl-Ile-oxazolone)	self-aminoacylation (biotinyl-Met-oxazolone)	self-aminoacylation (biotinyl-Phe-oxazolone)	self-aminoacylation (biotinyl-Val-oxazolone)	self-aminoacylation (biotinyl-Trp-oxazolone)	self-aminoacylation (biotinyl-Leu-oxazolone)
AUUCACCUAGGUCGGCGGGUG [Fam2.2 aminoacylation ribozyme variant]	4.39	6.63	41.6	5.49	6.02	8.86
AAGUUUCCUAAUAGUCGCUAG [Fam3.1 aminoacylation ribozyme variant]	1.61	1.78	2.18	1.67	1.97	1.39
AAGUUUGAUAAUAGCCGCAAG [Fam3.1 aminoacylation ribozyme variant]	1.29	1.37	1.32	1.14	1.19	1.05
AUUACCCUGGUCACAGAGUGA [Fam2.1 aminoacylation ribozyme variant]	4.39	8.95	54.1	4.01	9.52	10.9
AUUCACCUAGGGGAUCGGGUG [Fam2.2 aminoacylation ribozyme variant]	3.44	4.34	32	3.26	4.28	6.82
AUUGCUCUGGUCAUCGAGUGA [Fam2.1 aminoacylation ribozyme variant]	3.33	6.02	6.13	3.3	6.59	5.71
AAGUUUGCUAAUAGUCUCGAG [Fam3.1 aminoacylation ribozyme variant]	1.06	1.02	2.01	0.95	1.96	1.14
AUUCAUCUAGGUCAUCGGGUC [Fam2.2 aminoacylation ribozyme variant]	1.07	1.21	2.17	1.28	1.02	1.22
AUACCCCUAGGUCAUCGGGUG [Fam2.2 aminoacylation ribozyme variant]	5.22	8.28	71.2	5.95	7.88	10.7
CUACCUCAAACAAUCGGUGUG [Fam1A.1 aminoacylation ribozyme variant]	1.19	0.952	0.583	1.11	0.845	2.02
AAGUUUGCUAAUAGGUGCAAG [Fam3.1 aminoacylation ribozyme variant]	0.728	0.706	0.732	0.836	0.526	0.609
GCACACGUCAAGCAAUCGGUC [Fam1B.1 aminoacylation ribozyme variant]	2.63	2.47	11.5	2.85	3.95	2.18
AUGUUUGCUAAUGGUCGCAAG [Fam3.1 aminoacylation ribozyme variant]	1.16	0.875	1.63	0.934	1.13	1.02
AUUGCCUUGGUCAUCGAGUGA [Fam2.1 aminoacylation ribozyme variant]	4.46	8.02	48.9	4.83	8.73	8.79
AUUACCGUAGUCAUCGAGUGA [Fam2.1 aminoacylation ribozyme variant]	2.94	4.79	26	3.22	7.23	5.83
AUUCACAUAGGUCAACGGGUG [Fam2.2 aminoacylation ribozyme variant]	2.85	4.31	28.8	2.81	4.39	5.9
AUUCACCUAGGUCAUCGCGUA [Fam2.2 aminoacylation ribozyme variant]	3.2	3.71	19.4	2.89	6.08	4.3
AUUUACCUAGGUGAUCGGGUG [Fam2.2 aminoacylation ribozyme variant]	2.46	2.64	15	2.45	2.89	3.24
AUCCACCUGGGUCAUCGGGUG [Fam2.2 aminoacylation ribozyme variant]	4.48	9.47	41.8	6.05	7.25	8.16
AAGUUCGCUAAAAGUCGCAAG [Fam3.1 aminoacylation ribozyme variant]	2.42	2.51	4.4	1.67	3.39	2.68
AUGUAUGCUAAUAGUCGCAAG [Fam3.1 aminoacylation ribozyme variant]	1.62	1.67	3.25	1.39	1.95	1.14
GCACACUUCAAGCAAUCGGUA [Fam1B.1 aminoacylation ribozyme variant]	2.84	1.98	2.95	2.5	3.53	2.26
CUACAUCAAACAACCGGUCUG [Fam1A.1 aminoacylation ribozyme variant]	0.885	1.31	1.22	1.11	1.47	1.14
AUUAUCCUAGUCAUCGAGUGA [Fam2.1 aminoacylation ribozyme variant]	3.35	5.97	26.4	3.15	8.1	6.53
CCGCACUUCAAGCGAUCGGUC [Fam1B.1 aminoacylation ribozyme variant]	1.34	1.53	2.22	1.8	4.81	1.3
AUUACCCCGGUCAUCGAGUGA [Fam2.1 aminoacylation ribozyme variant]	2.93	5.35	27.9	3.2	6.34	5.4

Sequence	self-aminoacylation (biotinyl-Ile-oxazolone)	self-aminoacylation (biotinyl-Met-oxazolone)	self-aminoacylation (biotinyl-Phe-oxazolone)	self-aminoacylation (biotinyl-Val-oxazolone)	self-aminoacylation (biotinyl-Trp-oxazolone)	self-aminoacylation (biotinyl-Leu-oxazolone)
AUUCACCUAGGCCAUAGGGUG [Fam2.2 aminoacylation ribozyme variant]	2.09	2.45	4.48	2.11	2.58	2.54
AUUCACCUAAGUCCUCGGGUG [Fam2.2 aminoacylation ribozyme variant]	4.5	7.52	45.8	4.11	6.98	10.1
CUAAUUAAAACAAUCGGUCUG [Fam1A.1 aminoacylation ribozyme variant]	0.791	0.827	0.555	0.738	0.564	0.782
UCACACUUCAAGAAAUCGGUC [Fam1B.1 aminoacylation ribozyme variant]	0.947	0.819	7.38	0.888	6.06	0.906
CCCCACUUCAAGCAAUCGGUG [Fam1B.1 aminoacylation ribozyme variant]	6.57	11	75.4	7.84	12.5	13.9
CCACACGUCAGGCAAUCGGUC [Fam1B.1 aminoacylation ribozyme variant]	1.38	1.33	3.26	2.52	1.93	1.81
AUUGACCUAGGUCAUCGGUUG [Fam2.2 aminoacylation ribozyme variant]	1.34	1.08	3.99	1.29	1.65	1.41
CUUCACCUAGGUCAGCGGGUG [Fam2.2 aminoacylation ribozyme variant]	3.62	3.27	9.81	3.88	4.01	4.96
UUGUUUGCUAAUAGUCGCAAG [Fam3.1 aminoacylation ribozyme variant]	1.41	1.33	9.39	1.42	3.52	1.24
AAAUUUGUUAAUAGUCGCAAG [Fam3.1 aminoacylation ribozyme variant]	2.11	2.04	2.69	1.59	1.76	1.99
UAUUUUGCUAAUAGUCGCAAG [Fam3.1 aminoacylation ribozyme variant]	1.75	1.65	1.99	1.52	1.47	1.31
CCACACUUCAAGCAAUCGCUA [Fam1B.1 aminoacylation ribozyme variant]	1.41	1.22	1.05	1.94	1.27	1.44
AUUACCCUCGUGAUCGAGUGA [Fam2.1 aminoacylation ribozyme variant]	4.47	10.4	70.3	4.09	10.8	11.6
AAGUCUGCUAAUAGUCUCAAG [Fam3.1 aminoacylation ribozyme variant]	1.14	1.76	19.4	1.2	4.59	1.43
AUUCCCCUAGGUCUUCGGGUG [Fam2.2 aminoacylation ribozyme variant]	13.7	19.3	127	13.9	21.8	26.7
CCAGACAUCAAGCAAUCGGUC [Fam1B.1 aminoacylation ribozyme variant]	0.911	0.825	1.06	0.993	0.802	0.896
CAGUUUGCUAAUAGUCGCCAG [Fam3.1 aminoacylation ribozyme variant]	1.86	1.91	10.1	2.17	2.45	2.43
AUUAACCUGGUCAUCUAGUGA [Fam2.1 aminoacylation ribozyme variant]	4.57	9.41	52.4	4.53	11.1	9.7
CCACACAUCAACCAAUCGGUC [Fam1B.1 aminoacylation ribozyme variant]	0.785	0.622	1.2	0.745	1.26	0.487
CUACUUCAACCAUUCGGUCUG [Fam1A.1 aminoacylation ribozyme variant]	1.21	1.17	0.891	1.26	1.52	1.19
AAUCACCUAGGUCAACGGGUG [Fam2.2 aminoacylation ribozyme variant]	2.29	2.91	10.3	2.77	3.32	3.39
AUAACCCUGGUCAUCGAGUGA [Fam2.1 aminoacylation ribozyme variant]	8.43	19.7	69.1	8.59	18.7	18.8
AGUACCCUGGUCAUCGGGUGA [Fam2.1 aminoacylation ribozyme variant]	9.32	17.7	82.1	9.99	19.6	19
AUUCCCCUAGGUCACCGGGUG [Fam2.2 aminoacylation ribozyme variant]	13.9	20.3	163	13.4	21.7	26.2
AAGUUUCCUAAUAGACGCAAG [Fam3.1 aminoacylation ribozyme variant]	0.82	0.632	1.32	0.805	0.895	0.671
